Experimental data as given in patent publication US20220048954A1.
Several values for one entry are separate records, joined by “and”; a condition that tells them apart may be missing. Identical values can stand only once.

Target: mouse angiotensin converting enzyme 2 (ACE2) (mouse) (UniProt Q8R0I0)
Experiment: cell-based or functional assay

Chain of UniProt Q8R0I0 (Q8R0I0 18-805): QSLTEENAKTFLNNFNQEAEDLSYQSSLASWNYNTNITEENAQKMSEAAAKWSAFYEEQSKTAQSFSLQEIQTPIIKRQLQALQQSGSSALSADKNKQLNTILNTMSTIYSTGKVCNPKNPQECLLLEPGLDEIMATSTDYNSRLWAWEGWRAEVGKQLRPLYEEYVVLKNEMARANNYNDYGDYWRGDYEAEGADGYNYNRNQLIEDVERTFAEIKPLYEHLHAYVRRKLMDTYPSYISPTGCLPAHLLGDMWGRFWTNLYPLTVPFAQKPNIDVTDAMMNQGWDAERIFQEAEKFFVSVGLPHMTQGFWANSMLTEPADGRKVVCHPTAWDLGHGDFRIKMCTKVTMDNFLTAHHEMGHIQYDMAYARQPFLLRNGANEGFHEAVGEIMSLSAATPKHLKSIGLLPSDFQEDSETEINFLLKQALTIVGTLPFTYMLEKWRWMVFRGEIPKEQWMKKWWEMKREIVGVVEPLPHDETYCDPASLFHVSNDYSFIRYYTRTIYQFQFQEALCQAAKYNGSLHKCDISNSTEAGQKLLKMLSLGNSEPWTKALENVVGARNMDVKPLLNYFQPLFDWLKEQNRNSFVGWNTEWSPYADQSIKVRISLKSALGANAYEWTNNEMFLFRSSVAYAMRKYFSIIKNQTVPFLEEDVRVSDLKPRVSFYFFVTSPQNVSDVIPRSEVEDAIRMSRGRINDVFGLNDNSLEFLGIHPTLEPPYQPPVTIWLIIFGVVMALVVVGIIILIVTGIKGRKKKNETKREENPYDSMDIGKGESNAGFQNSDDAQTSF

## SARS-CoV2 Spike protein, WT (614D), with C-terminal HA tag (from UniProt P0DTC2 14-1273)
  cell fusion assay, FACS red/green double positive events (x over the baseline without Spike): 17 and 18
